B1: GST–Rabin8-WT [human] / 6His–Rab8a [not stated] (parent complex)
chain 1: MANDPLEGFHEVNLASPTSPDLLGVYESGTQEQTTSPSVIYRPHPSALSSVPIQANALDVSELPTQPVYSSPRRLNCAEISSISFHVTDPAPCSTSGVTAGLTKLTTRKDNYNAEREFLQGATITEACDGSDDIFGLSTDSLSRLRSPSVLEVREKGYERLKEELAKAQRELKLKDEECERLSKVRDQLGQELEELTASLFEEAHKMVREANIKQATAEKQLKEAQGKIDVLQAEVAALKTLVLSSSPTSPTQEPLPGGKTPFKKGHTRNKSTSSAMSGSHQDLSVIQPIVKDCKEADLSLYNEFRLWKDEPTMDRTCPFLDKIYQEDIFPCLTFSKSELASAVLEAVENNTLSIEPVGLQPIRFVKASAVECGGPKKCALTGQSKSCKHRIKLGDSSNYYYISPFCRYRITSVCNFFTYIRYIQQGLVKQQDVDQMFWEVMQLRKEMSLAKLGYFKEEL
chain 2: MAKTYDYLFKLLLIGDSGVGKTCVLFRFSEDAFNSTFISTIGIDFKIRTIELDGKRIKLQIWDTAGQERFRTITTAYYRGAMGIMLVYDITNEKSFDNIRNWIRNIEEHASADVEKMILGNKCDVNDKRQVSKERGEKLALDYGIKFMETSAKANINVENAFFTLARDIKAKMDKKLEGNSPQGSNQGVKITPDQQKRSSFFRCVLL
B2: GST–Rabin8-WT [human] / 6His–Rab11a [not stated] (parent complex)
chain 1: B1 chain 1
chain 2: MGTRDDEYDYLFKVVLIGDSGVGKSNLLSRFTRNEFNLESKSTIGVEFATRSIQVDGKTIKAQIWDTAGQERYRAITSAYYRGAVGALLVYDIAKHLTYENVERWLKELRDHADSNIVIMLVGNKSDLRHLRAVPTDEARAFAEKNGLSFIETSALDSTNVEAAFQTILTEIYRIVSQKQMSDRRENDMSPSNNVVPIHVPPTTENKPKVQCCQNI

Variants of: B1
Test: GST pull-down, immunoblot quantified with Image Lab 6.1; purified Rab8 in the presence of GDPβS; n=3; parent: 4.5; read off a plot

Variant	response
chain 1 E192A	~4.5
chain 1 T419A, chain 1 Y423A, chain 1 L428A	~4.5
chain 1 F201A	~4.5

Variants of: B2
Test: GST pull-down, immunoblot quantified with Image Lab 6.1; purified Rab11 in the presence of GTPγS; n=3; parent: 8.5; read off a plot

Variant	response
chain 1 E192A	~9.5
chain 1 F201A	~9

Variants of: B2
Test: GST pull-down, immunoblot quantified with Image Lab 6.1; purified Rab11 in the presence of GTPγS; n=3; P=0.0012 vs WT; parent: 8.5; read off a plot

Variant	response
chain 1 T419A, chain 1 Y423A, chain 1 L428A	~2.5

Reference: PMC11828469 (2025)
